The results in this text go back to publication PMC3036719, “The Multifunctional LigB Adhesin Binds Homeostatic Proteins with Potential Roles in Cutaneous Infection by Pathogenic Leptospira interrogans” (PLoS ONE, 2011).

The target of this assay is T1, LigB9-11 (Leptospira interrogans serovar …).
T1 construct: pET-20b(+) adds an initiating methionine and a C-terminal LEH6 tail; not shown: His6 (LEH6 tail), C-terminal, kept
Briefly: ELISA; host protein (1 µg per well) immobilised in microtiter wells, blocked with 20 mg/mL BSA; recombinant LigB in 20 mg/mL BSA in PBS pH 7.2, 1 h at 37°C; bound LigB detected by its polyhistidine tag; apparent Kd from the LigB concentration at half-maximal binding. As to conditions: both partners purified. (In general: ELISA stands for enzyme-linked immunosorbent assay.)

B1: fibrinogen fragment D (complex)
chain 1: VSEDLRSRIEVLKRKVIEKVQHIQLLQKNVRAQLVDMKRLEVDIDIKIRSCRGSCSRALAREVDLKDYEDQQKQLEQVIAKDLLPSR
chain 2: DNENVVNEYSSELEKHQLYIDETVNSNIPTNLRVLRSILENLRSKIQKLESDVSAQMEYCRTPCTVSCNIPVVSGKECEEIIRKGGETSEMYLIQPDSSVKPYRVYCDMNTENGGWTVIQNRQDGSVDFGRKWDPYKQGFGNVATNTDGKNYCGLPGEYWLGNDKISQLTRMGPTELLIEMEDWKGDKVKAHYGGFTVQNEANKYQISVNKYRGTAGNALMDGASQLMGENRTMTIHNGMFFSTYDRDNDGWLTSDPRKQCSKEDGGGWWYNRCHAANPNGRYYWGGQYTWDMAKHGTDDGVVWMNWKGSWYSMRKMSMKIRPFFPQQ
chain 3: KMLEEIMKYEASILTHDSSIRYLQEIYNSNNQKIVNLKEKVAQLEAQCQEPCKDTVQIHDITGKDCQDIANKGAKQSGLYFIKPLKANQQFLVYCEIDGSGNGWTVFQKRLDGSVDFKKNWIQYKEGFGHLSPTGTTEFWLGNEKIHLISTQSAIPYALRVELEDWNGRTSTADYAMFKVGPEADKYRLTYAYFAGGDAGDAFDGFDFGDDPSDKFFTSHNGMQFSTWDNDNDKFEGNCAEQDGSGWWMNKCHAGHLNGVYYQGGTYSKASTPNGYDNGIIWATWKTRWYSMKKTTMKIIPFNRLTIGEGQQHHLGGAK
Consider B1, for which the Kd is 26 nM.
